Assay results: US10822385B2, “EGF(A) analogues with fatty acid substituents” (Novo Nordisk A/S, priority 2016, dated 2020)

Target: T1, hPCSK9 (Homo sapiens, UniProt Q8NBP7)
T1 construct: purchased Sino Biologicals, China; host or cells: injected into BalBC or NMRI mice
Experiment: hPCSK9 challenge model, hepatic LDL-R expression in mice (Western Blot)
Format: in vivo, mouse
Conditions: inhibitor 22 nmol/kg, hPCSK9 0.4 mg/kg i.v., healthy control = 100%, hPCSK9 alone = 0%
Protocol: The aim of this study was to show the change in the LDL receptor expression level in mouse liver in response to inhibiting the action of intravenously injected hPCSK9 with an anti-PCSK9 peptide.
Healthy male BalBC or NMRI mice (Charles River, Germany) are injected with an anti-PCSK9 peptide, either s.c. or i.v. 15-120 minutes before injecting hPCSK9 (Sino Biologicals, China) intravenously in the tail vein at a dose of 0.4 mg/kg. Sixty minutes after the injection of hPCSK9, the animals are anaesthetised in isoflurane and euthanised by cervical dislocation. The liver is then quickly excised and snapfrozen in liquid nitrogen. The livers are kept at −80 degrees celsius until analysis.
Equal protein transfer was confirmed by Ponceau S (Sigma, P7170) staining of the membranes and the membranes were further blocked in blocking buffer (TBS-T, 2% Tween). […] Quantitative analysis of chemiluminescent signals from Western blots was done with MultiGauge software (Fujifilm).
“Vehicle-vehicle” is the group of healthy controls (baseline level), “vehicle-hPCSK9” is the group injected with hPCSK9 alone.
In Table 8, data are presented as percentage change in relation to the window between baseline level in healthy control animals (set to 100%) and the level after down regulation by hPCSK9 alone (set to 0%).

T1 sequence (Q8NBP7 153-692): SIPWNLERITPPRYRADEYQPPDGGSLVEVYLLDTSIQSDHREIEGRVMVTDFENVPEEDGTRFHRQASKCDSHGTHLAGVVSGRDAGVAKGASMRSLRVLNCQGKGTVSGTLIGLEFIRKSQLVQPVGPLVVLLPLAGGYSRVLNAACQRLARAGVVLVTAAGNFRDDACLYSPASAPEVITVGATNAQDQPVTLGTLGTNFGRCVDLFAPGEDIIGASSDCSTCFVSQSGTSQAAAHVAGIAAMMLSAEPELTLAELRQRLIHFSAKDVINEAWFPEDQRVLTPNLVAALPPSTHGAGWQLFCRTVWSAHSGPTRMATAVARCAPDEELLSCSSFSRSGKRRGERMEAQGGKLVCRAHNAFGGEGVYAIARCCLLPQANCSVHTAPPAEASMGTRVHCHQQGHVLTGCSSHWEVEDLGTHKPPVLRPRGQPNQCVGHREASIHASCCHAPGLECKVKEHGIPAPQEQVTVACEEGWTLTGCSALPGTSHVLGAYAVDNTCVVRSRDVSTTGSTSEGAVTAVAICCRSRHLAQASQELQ

## Alirocumab: anti-PCSK9 antibody, control molecule in the hPCSK9 challenge model
  Percentage of baseline (hepatic LDL-R expression): 157%
